test: soluble on expression in E. coli; label from the status in PepcDB or PDB records

Sequence | soluble on expression in E. coli
MAHHHHHHMRNIVQKYLQRNSTKLFNRTSVFNLYKKCNFSGYKIYSDGLVHSEFSTELKTVNEVIKMPIYRILDTNGHLLDGHEAPFKDEEVLKIYKDMVEFSIWDEIFYGIQRQGRISFYIVNEGEEGLQFGMGKALSVDDHLYCQYRETGVLLSRGFTYTDILNQLFGTKYDEGKGRQMCICYTKKDLNIHTITTPLGSQLSHAAGCGYALKLKNQKAVAVTYCGDGSSSEGDFYAALNFASVRQSQTMFVCKNNLYAISTSIKDQYRGDGIAPRALALGIESIRVDGNDLFASYLATKKLRDICIQESKPVFIEFMSYRYGHHSTSDDSSLYRPKEENEAWRQEGVHPISRIFLYLKNKNLYSEKEDQEHRKSVKENVLKELKKYESVKRYNIVGGLFEDVYHEEDWNIKEQRENFEQFFKENKHNYDTSKFER | soluble
MAHHHHHHMRRSLVFPPCHLQEARLLQSQQLFGWYHQTRHFTSLVDRLSTGVARKLSSLTETHMMPLSEKHITEPRRPYPKRPSMQENLAERLAEQRRWRSRVVPQQIILSKDKLYIEFVWSAATLSAAAAREMRQQQNNEEENGDGCTQKRKGISCGSFANDGIIKSEKLMSHRTRFLAEFLRAYSPSTDVIGADALIYGRRGITITDVIPVGNYALRIVFSDGHSGGIYPYEYLFHLGQCKYTKMREYIRRLREKRKSRDPPKRVPSKYVPRGRNAAEGTPKRDKTDDCGHRVAAK | not soluble
MAHHHHHHMRRVIHGEVRHHNTDTNNTRIPWDFTMASYEEINNVILPKFPRSRRRSAIIPLLHLAQRQQGGYIPVTAMYKIARICEVPPMQVFETVTFYSMFNRQPVGKYHIQFCVTTPCMLCGCDELVHRTEAYLNVKMHGTTRDGLITLGEMQCLGACVNAPMLVVSDYSRPPHFSYDFVEDLTWDSVKELIENLREGRPFKVGTCREDRRWSEPAGGRTSIFMKEPPKPYCRDLDAKPVQPGASTGGAAKK | not soluble
MAHHHHHHMRTSRGFCMSMWDSPAFEHNPLSRYWKRMMKQNGETLTAQSIPRHIHGYIEASCPRTEGLVRWFPYKKEITVDGRYVPTISDAIYSYYFPRELNDDERVKYVAIKTGRSELEVAEEVFLMRKMKLFVAQLLRNKLRSRPLRMPEGVDYSGIERRYTLGISRVAQAMGMSMYGTQSYDPVIVYSPYCDIGDCIDCICTKQLRTATQYLLCEVAVHRGIARSRMTDVTSEPKEPLSHVEPCLFEFIKLRLAILALVAKQEHYVVDHLFDGGHRYGGCLIHLFPSPLDPEIIDHEVNHIELDLDLAQKWMKHYYDHYVAPRRSG | not soluble
MAHHHHHHMSATPSNVLLGLFDGYMSHKRDQLTSETKLGGTPTYFPPLSDADKAQIRRWTSCGVCGHAMSLLTQAYSPLPTAPASRPHHRMVYVFGCNSGYCSRQPTSSMVAFSVQVDQEDEQALAENAEEEDEDEVIETGPLLPSELPEAVLPPCYVYIDAEPSKEAVVPTDIERELIKMAEENARSTVTDEELQQLEQTVDLKDTKTDYYYEKFRSRVARAPNQVLRYYERTVAAAAATSASLRAKDVKPIFMNPDKVKAMVTIPACACCGSTQTAELQVMPTSLYYLHVSEYTALARADAAAMAAPAGTLAAASTHSNVVDTQSPVASPSASTTTCKASALSGAATGTEKAIPANVDDGCDFGTITVYVCAKDCAARQHGVVLRRETLCVEEAPTMRDEERAGKADAAKAGTDGATHKVTLRELLHGNGEGGEDMEDDDEGHIDDEAVSTA | soluble
MAHHHHHHMSDAPHRQSSTPASSFLPPEPLCVADILSELLPFLLAAPQPRDGCPPSSSAQEPAESPVLLIPPTVASEHRVQVSIRGRRYETALEVALTYSLFFFVFFHWPFSEEDESSDAAGCASDVAHVKRAPRSVGDAVMAAASARDLPKEAHLLRHYTRVVEPVLRVFLDHWAAPLDAAAAAQGEGESAARAETAEAGDAARLPLLPPLPHPVRIAYDASTRVWKFEFAARLTAGAAAEARSGRQCDDSSAAVSLAAADGCAAVATDKLNNSPFLLLQSEYMGLLLVFLRRCAKVRAERRAAGEGAAACALAPYPSLPIRWEEMNYDEQLSVVQLIRRFGVVSLARTYTRPTAPETTSLYIGEEAAAATARVKVEGDACSLRARASESMGKQQQKIQQAASVAVDTAEVVKKERCINEDDFDGLVLSAKGCARCGMAEHSTEECHF | soluble
MAHHHHHHMSDEGFEDLFILDTDPEELYEELGPIGVGNYGSVIKARNRHTQEITAIKLVLLVDKDERDFVQREISILKHCRHPNIVHYYGAHKSLSKLWIVMEYCEGGSIDMVYKVLRHPLPEPLIAYVCRQVLLGLQYLHANRKIHRDIKGGNILLTRDGGVKLADFGVSTELSHSLSRRNTFVGTLLWMAPEAILELDYDEKADLWSLGITLIEMAEGAPPYIDTHPARALFMIPKMDPPSLQDKERWSPQMTLFLKRLLTKDHNARPTATTMLNDPFVLPENIGTQEQLKAVIDEVLAKKASIDPQRMRDYTDSSATFVERTSSDGGGGDDHSTDSRDEVQPHLTAKGLTNAPANSIEALDGAGTHLFFQDGTLLPLPMLYTQDISFDELCVGEELNGPFSLPVPSVESLLVPPEQQSTACHGGEALAHTMHVTAKLKEMLYYHKQLPYCRGLTDAEAAKSREMQLKYGSVLKSVYRL | not soluble
MAHHHHHHMSEINIIKAFGILLCRLKKYNPVTTGDINKFEFLFLKASYADKHWTPPKGLHENNESGLETAVRETLEETGINKDKYKLLNYQKTLKYNVKDKPKETTYYLAMLLNNEENVILSDEHTDYKWIGSHESDTYNLPESLADLLKEAEEFLNKEQL | soluble
MAHHHHHHMSIPLENWGQLKLSVAKPELKSEDGGDVKRDECVLELLALPKGKAKDNPNYVPRPILSIPISAIASASGTTKNDVSLTMRPAATAGAEDLELRSIRFAVPNVCVGYEETEMAGKVILQDIQSSMMQYQEQFLQRHGSGGQGGKLLALAAMGSGQAKHTDEVVVATFDDVLLSYPSGKYKIVISNYNVVLEDKKKGTSSGLLSFSLSEIQNLFLCDVPVYFSPTEEVDANSLPQYVVLILKNPLKIRSTAYNHVVISCPAGLTLDEEHPWRCELKTQDEINKTLQLPPSKEGEEPPLVPTMSGRVSDILTRTFKAIAKVPAYGGINKEYKSVLTSHSQSSMRCLFHGAEGLLYIVNSGFLYLHRPATRILFNEVARVELDESESGQATFQLTVFATGAKGDDKYVFSGIAKEEKNGLLSYLATKVKVVHTGGDAMESDDDDEKDDTSDEDESDDSDYDDSDTEDDDSSDDGGDHDSSRKRKREDKKHEKDKKHKKDKKHKKDKKHKKDKKHKKDKKHKKDKKHKKDKKHKKDRKHKKDKHEKSDA | soluble
MAHHHHHHMSKDGNCGGCSAPWGKMPQSPMTPLSDARDSPTAPLCSHSAFSKVNKESSEEESFVVGKYQTSMCPICLESFTHENPAVVVGCGHSFHLQCVEDWRQRSPICPVCMIVLRGDGLPMHTGRQSQRPSEVSPSQRKGRATTSTMTSASSGTTFMVTAGGVHGRVLDTKPPSVVNASAGVEGSGSVVDVGNVSFLSRVRRCMKFCCTCEDDL | not soluble
MAHHHHHHMSLNLAEAADERSQREMEKYLVERVAGQGTFGTVQLAREKNTGVNVAIKKVIQDPRFKNRELQIMQDLSRLRHPNIVLLKNYFYTVLGDHRHNDVYLNVVMEFVPDTLHRVCRAYYRRLASPPMILVKVFMYQLLRGIACLHLPAVNVCHRDIKPHNVLVDESTGDLKLCDFGSAKKLSPSEPNVAYICSRYYRAPELIFGNQYYSTAVDVWSVGCIFAEMLLGEPIFCGENTSGQLREIVRVLGRPSREELHKLSTSNVELNVPTNKSTPWEDVFKRPLPAEVYDLCAKIFKYLPEQRITPLEAICHPFFDELHDATVKLPSGNALPAHLFTFLPEEINEMTEAQRSQLVQK | soluble
MAHHHHHHMSQLKIKRGNFLFTSESVNEGHPDKICDQISDAILDSCLREDPYSKVACEVCAKKNYIFIFGEITTKAKVNYDKVTRDVLKHIGYDDESKGLDYKTAEIKVSIDEQSPDIAQCVHENRSPELIGAGDQGIMFGYATDETENYMPLTHHYATLLGKRLTEVRKLGILPYLGPDGKTQITIEYKNKGSCGGHLEPLRVHTVLISTQHAEDIKYEQLKTDLMENVIKYVIPEKLLDNETLYYLNPSGKFVLGGPAADAGLTGRKIICDTYGGWGAHGGGAFSGKDASKVDRSAAYYLRFIAKSLVANKFCRRVLVQASYSIGIANPISLNVNSYGTVSTGYTDYDLEQIILRNFDLRPGFIIQELKLTEPVFSKTSAYGHFGREGDTFTWEKIKDLSHEKNALKN | soluble
MAHHHHHHMSSITGAAYSSPEYTHCIRDSRFRHNVYEPEADTFLFLDALDKDAELLRSIRPDRCVEVGCGSGAVITHLRCLLMPSVAAAATQELEAETPELCCGASGIRSAVGGPMFCAVDVNPLALEATAITWTETLLKYFRETVLAAFYERIFQSAVPTSLAAPVVLSAEGVSPPLTRVDADDPTSSALSASTFCLHRFHGDLLNALPRGNSAPALFDVVLFNPPYVPTSLKELQDAITQRDVITTAWCGGPRGRVVLDRFLRQLPSVLSRRGVCYVVLIKENNATDVVAFAQAAFREHLRCSGTETVKDEDDVLEASEVAARYTGEHLSVYRLRYVPRFQTP | not soluble
MAHHHHHHMSSSAEEKEAKKQEELRLAGSDSEGVRAAVKAQRELKKKRDALRKVQKKIRSGGSDAEVAAAIEQEAALLAEIGHLEALRGASSAPSTAHVAAASFTSTPATAAASPGALVTVATNKSSGAKAARSGEPAKEITAEERAASAKRLHDLVQGAMDANRLKCLHVLPRDAVVHPRIAEVAVLMEQMLLVGGSARALALISAFRELSRTTTVLAVPSLNEVNTTAFEKLIQINFDFVRRKREASAGMRHVKDVLVRRFVALRDEVIHPKPNMVDLIKDLGGPREVTLKILDAIEAELKMSFKSIVEDRSLPYVSSSDTILVFGRSSLVEYILLSRSRDPQCKPKRVIVIDSAPLFEGRQLAEKLSSAGIDVTYGLITACCTLMPKCTRVFMGASAVLQNGDMFGRCGMALVAACAKLFRKPVLCFSESYKFVPEVWVGNLAQNTKLADMRPAAEVHGSDTGTHSPLVYPTPPTLSPPQLRASGGWGTPARGADFLTRSGGGGAVPFSSSASGYLYDLTPASYIDMIICEMGCLHTSAIVAAIKDREGRDTSQLLNLVRG | soluble
MAHHHHHHMSTHIERLQSEDEVAFKLKGEIAAIEKEIKSWFIKRRLNMELNYSLHNLFTNYNIVGLSINKKIDLKEKMLWHDIVNGKPTLEDTLSLDAKEYKADVYRKMWENSTTTDNPCRLVGSIFFRCLKGNYQLTEQEREGTCMHSFLNFTHCRKALKLQQANNIRTALTKQSAEDTQAKALFERRSALLGKLTGSAP | not soluble
MAHHHHHHMSVFEARQKVYATLHGTFHAAIVQEVAVDAETGQYLYYVHYVEQDSRMDCWLPASELKERRQGRQASKQQTNKSGGGGITTRGQSRLVAGKEDEVSRGPNTPTSSAKRSNLQNCVKVSTTRARKDSSFFSRPKNIHSICMGPYEVATWYFSPYHLARPQIQQGLKQNAELFSGKMELQLRQENKKSAFQTAVVPTSFVLHICPFCLHPFTAHEDVVRHLQIVCPRHPPGNEIYRDPVRQLVVLEMDAVVEPVFCEHLALLSKLFLEHKALDHDMTPFLFYVLCAVQPHGLEVLGYFSKEKQSPEMYNLSCILVLPQFQSRGIGRFLIELSYELSRREGRIGSPEKPLSDLGEKLYLGYWGDVIVSALARAIEENHCATLEYLVQATYLSQADVLRTLQYLRLLNGTQIVVSEESIERCYSRRLHRERSGKNYVFYPHLLSWSPHMYYELKEQDVAPPIYVTQSEELEQNAASKGQRVF | not soluble
MAHHHHHHMSWRVSCKTALLDELFTYIAGKTDANTLQKECVLALPQLETLAKMLGFSLDDMSMYRLAWSWSCEAPLCIRKSEFVNGMNAICSGVKLSATATSSTCSASPVKSPKKEFEPILLALRNHVETLDGALRGDVTKFRHFYRFIYKWVQSPLTMERNMGQVGMSIETAVELWRMLFPHYREFKRLDDWITFCMSKKLFPHGIISRDLWEQLLEFTFVTDYSKYDVSDAWPSAMDDFVEYVKSKV | not soluble

Reference: the DeepSol protein solubility set
